Assay [1] has as its target T1, human EpCAM expressed on cells (CHO, Colo205, 293) (human, UniProt P16422 24-314).
T1 construct: whole, on cells; also called CHO cells expressing human EpCAM; Colo205 cells expressing human EpCAM
T1 sequence (looked up): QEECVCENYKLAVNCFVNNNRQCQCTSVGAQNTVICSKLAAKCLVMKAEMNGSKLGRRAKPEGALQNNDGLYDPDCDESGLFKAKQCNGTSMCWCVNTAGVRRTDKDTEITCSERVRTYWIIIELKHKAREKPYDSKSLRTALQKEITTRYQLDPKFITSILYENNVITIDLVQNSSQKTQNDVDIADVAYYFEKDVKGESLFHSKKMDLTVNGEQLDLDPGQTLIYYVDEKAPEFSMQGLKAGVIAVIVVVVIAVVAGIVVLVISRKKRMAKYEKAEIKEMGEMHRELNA
As to the kind of experiment: FACS of MMAE conjugates on Colo205 cells expressing human EpCAM, pH 7.4. The protocol: (§1) Binding activities of the conjugated humanized conditionally active anti-EpCAM antibodies (with MMAE) to Colo205 cells expressing human EpCAM was measured by FACS at two different pH: 6.0 and 7.4. […] The EC50 values for binding to the Colo205 cells expressing human EpCAM by the conjugated humanized conditionally active anti-EpCAM antibodies are summarized in Table 16.

The target in assay [2] is T2, recombinant human EpCAM extracellular domain (human, UniProt P16422 24-265).
T2 construct: extracellular domain; Plate-coated antigen of the ELISAs; also called human EpCAM ECD; recombinant EpCAM antigen
T2 sequence (looked up): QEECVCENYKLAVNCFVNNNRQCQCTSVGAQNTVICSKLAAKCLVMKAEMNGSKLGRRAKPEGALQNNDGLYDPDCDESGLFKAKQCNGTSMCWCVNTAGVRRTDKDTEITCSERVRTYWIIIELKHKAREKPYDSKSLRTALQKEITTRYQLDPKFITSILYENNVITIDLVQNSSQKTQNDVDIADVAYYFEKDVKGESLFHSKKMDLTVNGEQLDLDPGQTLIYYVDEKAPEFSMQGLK
Description: ELISA with pH titration, human EpCAM; ratio of binding activities at pH 6.0 and pH 7.4. Here is the method: (§2) Binding activities of conjugated humanized conditionally active anti-EpCAM antibodies to human EpCAM were measured by ELISA with pH titration. […] The ratios of binding activities to human EpCAM of the conjugated humanized conditionally active anti-EpCAM antibodies at pH 6.0 and pH 7.4, as well as their pH inflection points are summarized in Table 14.
(§3) The ELISA assay was performed using the following protocol: [0388] 1) Coat ELISA plates with 100 μL of 0.5 μg/mL (06_20_17 and 06_28_17 Experiments) or 1 μg/mL (07_06_17 and 07_11_17 Experiments) recombinant EpCAM antigen in carbonate-bicarbonate coating buffer [0389] 2) Cover plates with sealing film and incubate overnight at 4° C. [0390] 3) Decant plates and tap out residual liquid on a stack of paper towels [0391] […] 5) Add 200 μL of various pH incubation buffers to the wells according to the sample map.
In general terms: In an ELISA, binding on a coated surface is turned into a signal by an enzyme label.

The target in assay [3] is T3, cyno EpCAM (recombinant, ELISA antigen) (cynomolgus monkey).
T3 construct: extracellular domain; also called cynomolgus EpCAM extracellular domain
T3 sequence (Q1WER1 24-265): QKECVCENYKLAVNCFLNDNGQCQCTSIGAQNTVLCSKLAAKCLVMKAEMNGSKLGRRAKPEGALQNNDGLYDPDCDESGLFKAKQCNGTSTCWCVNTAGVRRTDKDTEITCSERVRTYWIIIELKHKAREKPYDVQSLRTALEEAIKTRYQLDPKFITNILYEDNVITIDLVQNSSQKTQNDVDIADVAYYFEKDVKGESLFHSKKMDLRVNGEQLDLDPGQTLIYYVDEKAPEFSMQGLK
As to the kind of experiment: ELISA of MMAE conjugates, cyno EpCAM, pH 6.0. Here is the method:
(§4) A similar ELISA analysis was also carried out using cyno EpCAM to measure the binding affinities of the conjugated humanized conditionally active anti-EpCAM antibodies. […] The EC50 values for binding to the cyno EpCAM by the conjugated humanized conditionally active anti-EpCAM antibodies are summarized in Table 13.
as §3

For assay [4], the target named is T2, recombinant human EpCAM extracellular …. Description: ELISA of MMAE conjugates, human EpCAM, pH 6.0. Here is the method:
(§5) The humanized conditionally active anti-EpCAM antibodies were conjugated to MMAE to create antibody drug conjugates. Binding activities of the conjugated humanized conditionally active anti-EpCAM antibodies to human EpCAM were measured by ELISA at pH 6.0 and pH 7.4 at different antibody concentrations. […] The EC50 values for binding to the human EpCAM by the conjugated humanized conditionally active anti-EpCAM antibodies are summarized in Table 12.
as §3

Assay [5] addresses T1, human EpCAM expressed on cells (CHO, …). Description: FACS of MMAE conjugates on 293 cells expressing human EpCAM, pH 6.0. The protocol:
(§6) A similar FACS analysis was also carried out using 293 cells expressing human EpCAM. […] The EC50 values for binding to the 293 cells expressing human EpCAM by the conjugated humanized conditionally active anti-EpCAM antibodies are summarized in Table 17.

The target in assay [6] is T2, recombinant human EpCAM extracellular …. As to the kind of experiment: ELISA of MMAE conjugates, human EpCAM, pH 7.4. The protocol:
as §5, §3

Assay [7] addresses T1, human EpCAM expressed on cells (CHO, …). As to the kind of experiment: FACS of MMAE conjugates on Colo205 cells expressing human EpCAM, pH 6.0. The protocol:
as §1

The target is the same in assay [8]. As to the kind of experiment: FACS of MMAE conjugates on 293 cells expressing human EpCAM, pH 7.4. Here is the method:
as §6

Assay [9] concerns the target T3, cyno EpCAM (recombinant, ELISA antigen). Description: ELISA of MMAE conjugates, cyno EpCAM, pH 7.4. Here is the method: as §4, §3
Assay [10] has as its target T4, cyno EpCAM expressed on 293 cells (cynomolgus monkey).
T4 construct: whole, on cells; also called 293 cells expressing cyno EpCAM
Description: FACS of MMAE conjugates on 293 cells expressing cyno EpCAM, pH 7.4. The protocol: (§7) A similar FACS analysis was also carried out using 293 cells expressing cyno EpCAM. […] The EC50 values for binding to the 293 cells expressing cyno EpCAM by the conjugated humanized conditionally active anti-EpCAM antibodies are summarized in Table 18.

Assay [11] deals with T4, cyno EpCAM expressed on 293 cells. Description: FACS of MMAE conjugates on 293 cells expressing cyno EpCAM, pH 6.0. The protocol:
as §7

For assay [12], the target named is T3, cyno EpCAM (recombinant, ELISA antigen). As to the kind of experiment: ELISA with pH titration, cyno EpCAM. The protocol: (§8) Binding activities of the conjugated humanized conditionally active anti-EpCAM antibodies to cyno EpCAM were also measured by ELISA with pH titration. […] The ratios of binding activities at pH 6.0 and pH 7.4 to the cyno EpCAM by the conjugated humanized conditionally active anti-EpCAM antibodies, as well as their pH inflection points are summarized in Table 15.
as §3

Assay [13] has the same target. Description: ELISA with pH titration, cyno EpCAM; ratio of binding activities at pH 6.0 and pH 7.4. The protocol:
as §8, §3

The target of assay [14] is T2, recombinant human EpCAM extracellular …. Description: ELISA with pH titration, human EpCAM. The protocol:
as §2, §3

Assay [15] addresses T1, human EpCAM expressed on cells (CHO, …). Description: cell-based or functional assay.

Here are results for four molecules from patent publication US20260053904A1 (BIOATLA, published 2026).

Broadly, the EC50 is the midpoint of the concentration-response curve.

T4 sequence (Q1WER1 24-314): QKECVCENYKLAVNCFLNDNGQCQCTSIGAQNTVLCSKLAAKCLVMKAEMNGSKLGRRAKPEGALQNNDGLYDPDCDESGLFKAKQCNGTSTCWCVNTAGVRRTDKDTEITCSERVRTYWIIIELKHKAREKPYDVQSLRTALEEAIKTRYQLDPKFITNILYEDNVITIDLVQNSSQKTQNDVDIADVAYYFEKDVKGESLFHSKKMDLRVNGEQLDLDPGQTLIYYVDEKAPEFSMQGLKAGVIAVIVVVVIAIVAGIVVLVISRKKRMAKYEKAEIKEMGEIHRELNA

B1: BA-105.4-01-02 8316-vcMMAE (antibody, V domains shown)
VH: EVQLVQSGAEVKKPGESLRISCKGSGYTFTSYWMHWIRQSPSRGLEWLGYIRPSTGYTEYNQKFKDRVTISADKSISTAYLQWSSLKASDTAMYYCGRGDNWVGFANWGQGTLVTVSS
VL: EIVLTQSPDFQSVTPKEKVTITCSASSSISYMHWYQQKPGKAPKLLIYSTSNLASGVPDRFSGSGSGTDFTLKISRVEAEDVGVYYCHQWSTYETFGQGTKVEIK
modifications: antibody conjugated to vcMMAE; chain and residues of attachment not stated
For B1, the EC50 in assay [1] turned out to be 0.153 µg/mL; in [3], 0.0877 µg/mL; in assay [4], 0.0392 µg/mL; in assay [5], 0.0637 µg/mL; in [6], 0.127 µg/mL; in assay [7] it was 0.15 µg/mL. The EC50 in assay [8] was determined as 0.0849 µg/mL; in assay [9] it was 0.257 µg/mL; in [10], 17.7 µg/mL; in [11], 4.72 µg/mL. Also, the “ratio (pH 6.0/7.4)” value in assay [2] was 1.75; in [13], 2.75. The pH inflection point in [12] is 6.3 pH.

B2: BA-105.4-01-05 8317-vcMMAE (antibody, V domains shown)
VH: EVQLVQSGAEVKKPGATVKISCKVSGYTFTSYWMHWIRQPPGKGLEWIGYIRPSTGYTEYNQKFKDRFTISRDNSKNTLYLQMNSLRAEDTAVYYCGRGDNWVGFANWGQGTLVTVSS
VL: EIVLTQSPDFQSVTPKEKVTITCSASSSISYMHWYQQKPGKAPKLLIYSTSNLASGVPDRFSGSGSGTDFTLKISRVEAEDVGVYYCHQWSTYETFGQGTKVEIK
modifications: antibody conjugated to vcMMAE; chain and residues of attachment not stated
Take B2: the concentration for a half-maximal effect (EC50) in [1] was found to be 0.203 µg/mL; in [3] it was 0.0659 µg/mL; in assay [4], 0.0306 µg/mL; in assay [5], 0.0772 µg/mL; in assay [6], 0.0703 µg/mL; in [7] it was 0.188 µg/mL. In addition, the EC50 in assay [8] is 0.109 µg/mL; in [9], 0.3 µg/mL; in assay [10], 43.4 µg/mL; in [11], 5.54 µg/mL. The “ratio (pH 6.0/7.4)” value was 2.39 in assay [2] and 2.76 in [13]. Further, the pH inflection point in assay [14] came out at 6.98 pH; in [12], 6.28 pH.

B3: BA-105-01-01 7376-vcMMAE (antibody, V domains shown)
VH: QVQLQQSGAELAKPGASVKVSCKASGYTFTSYWMHWVKQRPGQGLEWIGYIRPSTGYTEYNQKFKDKATLTADKSSSTAYMQLSSLTFEDSAVYYCGRGDNWVGFANWGQGTLVTVSA
VL: QIVLTQSPAIMSASLGEEIALTCSASSSISYMHWYQQKSGTSPKLLIYSTSNLASGVPSRFSGSGSGTFYSLTISSVEAEDAADYFCHQWSTYHTFGSGTKLEIK
modifications: antibody conjugated to vcMMAE; chain and residues of attachment not stated
With B3, the concentration giving a half-maximal response (EC50) in [1] came to 0.375 µg/mL; in assay [3] it was 0.0311 µg/mL; in assay [4] it was 0.024 µg/mL; in [5] it was 0.129 µg/mL; in assay [6] it was 0.0147 µg/mL; in [7], 0.301 µg/mL. Moreover, the 50% effective concentration (EC50) in [8] turned out to be 0.112 µg/mL; in assay [9], 0.0234 µg/mL; in assay [10], 1.74 µg/mL; in assay [11] it was 1.36 µg/mL. In addition, the pH inflection point in assay [14] amounted to 6.71 pH; in assay [12], 5.07 pH. The “IC50 for the in vitro killing of Colo205 cells, pH6.0” value in assay [15] is 12.9 ng/mL. The “IC50 for the in vitro killing of Colo205 cells, pH7.4” value in [15] stood at 16.8 ng/mL. Also, the “ratio (pH7.4/pH6.0) of the IC50 for the in vitro killing of Colo205 cells” value in [15] came to 1.3. Moreover, the “ratio (pH 6.0/7.4)” value in assay [13] came to 0.93.

B4: BA-105.4-02-01 8318-vcMMAE (antibody, V domains shown)
VH: EVQLVQSGAEVKKPGATVKISCKVSGYTFTSYWMHWVRQAPGQGLEWMGYIRPSTGYTEYNQKFKDRFTISRDNSKNTLYLQMNSLRAEDTAVYYCGRGDNWVGFANWGQGTLVTVSS
VL: EIVMTQSPATLSVSPGERATLSCSASSSISYMHWYQQKPGKAPKLLIYSTSNLASGVPSRFSGSGSGTEFTLTISSLQPDDFATYYCHQWSTYETFGQGTKVEIK
modifications: antibody conjugated to vcMMAE; chain and residues of attachment not stated
With B4, the EC50 in assay [1] is 0.693 µg/mL; in [3], 0.0809 µg/mL; in assay [4] it was 0.0324 µg/mL; in assay [5] it was 0.206 µg/mL; in [6], 0.22 µg/mL; in [7], 0.464 µg/mL. For the same molecule, the concentration giving a half-maximal response (EC50) in [8] amounted to 0.335 µg/mL; in assay [9], 0.249 µg/mL; in [10], 61.1 µg/mL; in assay [11] it was 7.96 µg/mL. The “ratio (pH 6.0/7.4)” value in assay [2] worked out at 6.74; in assay [13] it was 3.61. The pH inflection point in assay [14] was 6.83 pH; in assay [12], 6.16 pH.
